These results are taken from paper PMC11209382, “Exploring the Potentiality of a Plant Platform for Monoclonal Antibody Production in Veterinary Medicine” (Vaccines, 2024).

For assay [1], the target named is recombinant canine Interleukin 31 produced in Nicotiana benthamiana (canine). Description: SEC; elution volume on a calibrated Superdex 200 column; monomer to dimer. In general terms: Size exclusion chromatography separates by hydrodynamic size, large species first.
Assay [2] shares this target. Description: dynamic light scattering; hydrodynamic radius of cIL-31 at pH 7.5; monomer to dimer.
The target in assay [3] is canine neonatal Fc receptor, C-terminus biotinylated, attached to Streptavidin (cFcRn-SmBiT) (canine). The experiment in a line: other; competition with IgG-LgBiT tracer.
For assay [4], the target named is recombinant canine Interleukin 31 produced in HEK cells (canine). The experiment in a line: dynamic light scattering; hydrodynamic radius of cIL-31 at pH 7.5; monomer to dimer.
Assay [5] deals with T1, canine neonatal Fc receptor, C-terminus biotinylated, attached to Streptavidin (cFcRn-SmBiT) (canine, biotin at the C-terminus).
T1 chain 1: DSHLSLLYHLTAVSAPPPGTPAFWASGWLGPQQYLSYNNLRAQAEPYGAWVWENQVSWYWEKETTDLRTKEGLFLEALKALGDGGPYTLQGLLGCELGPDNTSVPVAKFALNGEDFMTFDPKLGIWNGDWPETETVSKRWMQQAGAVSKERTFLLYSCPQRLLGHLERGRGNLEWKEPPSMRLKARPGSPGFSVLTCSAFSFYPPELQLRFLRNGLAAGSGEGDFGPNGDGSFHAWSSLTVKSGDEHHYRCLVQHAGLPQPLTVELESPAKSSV
T1 chain 2: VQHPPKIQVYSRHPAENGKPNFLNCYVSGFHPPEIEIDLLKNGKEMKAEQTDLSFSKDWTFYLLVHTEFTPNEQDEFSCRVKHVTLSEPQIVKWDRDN
The experiment in a line: competition with IgG-LgBiT tracer.

Assay [6] addresses T2, recombinant canine Interleukin 31 produced in HEK cells (canine).
T2 chain: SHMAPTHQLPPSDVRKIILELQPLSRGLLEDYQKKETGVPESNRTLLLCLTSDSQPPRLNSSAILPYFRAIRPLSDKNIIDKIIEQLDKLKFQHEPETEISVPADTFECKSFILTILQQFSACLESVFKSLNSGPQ
Description: BLI. On the technique in general: BLI is a label-free optical method that tracks binding on a fibre tip over time.

The target in assay [7] is T3, recombinant canine Interleukin 31 produced in HEK cells (canine).
T3 construct: canine Interleukin 31 (IL-31); also called rcIL-31 (HEK); cIL-31 (HEK); source: produced in HEK cells
T3 chain: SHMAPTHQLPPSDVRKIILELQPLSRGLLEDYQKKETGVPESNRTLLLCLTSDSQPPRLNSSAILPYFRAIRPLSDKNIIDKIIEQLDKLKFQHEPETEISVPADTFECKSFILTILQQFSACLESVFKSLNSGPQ
Description: BLI; Lokivetmab or M1 (5 nM) immobilised on ProA biosensors to 1 nm; rcIL-31 (HEK) 300 to 80 nM in solution; 25 °C, PBS pH 7.4, 0.1% BSA, 0.02% Tween; association 360 s, dissociation 600 s; global fit, KD from kd/ka. The settings on record: both partners purified.

In general, stoichiometry N refers to a count of units in the complex or per binding partner. For the molecule “recombinant canine Interleukin 31 produced in Nicotiana benthamiana (ligand)”, the stoichiometry N in assay [1] and in assay [2] was 2 each time.
By IC50 is commonly meant the concentration at which inhibition is half-maximal. Read a low IC50 as greater potency in that assay. Take Lokivetmab: in assay [3], the half-inhibitory concentration (IC50) was 68.7 µg/mL.
With “recombinant canine Interleukin 31 produced in HEK cells (ligand)”, the stoichiometry N in assay [4] is 2.

B1: plant-made anti-cIL-31 monoclonal antibody M1 produced in wild-type N. benthamiana (antibody)
chain 1: EVQLVESGGDLVKPGGSLRLSCVASGFTFSNYGMSWVRQAPGKGLQWVATISYGGSYTYYPDNIKGRFTISRDNAKNTLYLQMNSLRAEDTAMYYCVRGYGYDTMDYWGQGTLVTVSS
chain 2: EIVMTQSPASLSLSQEEKVTITCKASQSVSFAGTGLMHWYQQKPGQAPKLLIYRASNLEAGVPSRFSGSGSGTDFSFTISSLEPEDVAVYYCQQSREYPWTFGQGTKLEIK
In assay [5], B1 showed a half-inhibitory concentration (IC50) of 17.9 µg/mL.

B2: plant-made anti-cIL-31 monoclonal antibody M1 produced in FucT/XylT mutant (ΔXF) N. benthamiana (antibody, V domains shown)
VH: EVQLVESGGDLVKPGGSLRLSCVASGFTFSNYGMSWVRQAPGKGLQWVATISYGGSYTYYPDNIKGRFTISRDNAKNTLYLQMNSLRAEDTAMYYCVRGYGYDTMDYWGQGTLVTVSS
VL: EIVMTQSPASLSLSQEEKVTITCKASQSVSFAGTGLMHWYQQKPGQAPKLLIYRASNLEAGVPSRFSGSGSGTDFSFTISSLEPEDVAVYYCQQSREYPWTFGQGTKLEIK
notes: CAN-34D03-VH-568-1); CAN 34D03-VL998-1); LC constant domain kappa (XP_035562095.1); Full IgG; N-glycans lack core α(1,3)-fucose and β(1,2)-xylose; also called M1 ΔXF; plant-made Lokivetmab biosimilar; source: ΔXF N. benthamiana, transient expression, purified (Protein A: Hi Screen Fibro PrismA)
The koff is the first-order rate constant of dissociation. What is called Kd is the free concentration of one partner at which half of the binding sites on the other are occupied at equilibrium, for simple one-to-one binding. B2 displayed an IC50 in assay [5] of 21.6 µg/mL. Also, the off-rate constant (koff) in assay [6] was found to be 0.00345 s⁻¹. In assay [7], the equilibrium dissociation constant (Kd) was determined as 28.5 nM.

B3: Lokivetmab (antibody, V domains shown)
VH: EVQLVESGGDLVKPGGSLRLSCVASGFTFSNYGMSWVRQAPGKGLQWVATISYGGSYTYYPDNIKGRFTISRDNAKNTLYLQMNSLRAEDTAMYYCVRGYGYDTMDYWGQGTLVTVSS
VL: EIVMTQSPASLSLSQEEKVTITCKASQSVSFAGTGLMHWYQQKPGQAPKLLIYRASNLEAGVPSRFSGSGSGTDFSFTISSLEPEDVAVYYCQQSREYPWTFGQGTKLEIK
notes: Caninized IgG; major N-glycoform GnGnF (79%); also called caninized monoclonal antibody targeting IL-31; commercial homolog of M1; source: produced in CHO cells; commercial product
For B3, the koff in assay [6] came to 0.00205 s⁻¹. Besides, the dissociation constant Kd in assay [7] worked out at 27.4 nM.
